Tests used:
[1] = target: T1, Rγc subunit (Homo sapiens, UniProt P31785); assay: Alanine scan competition binding assay, binding to Rγc subunit; conditions: alanine scan peptides
T1 construct: purchased ACRObiosystems, Inc. ILG-H5256

[2] = target: T2, IL-7Rα subunit (Homo sapiens, UniProt P16871); assay: Phage competitive binding assay characterizing the IL-7Rα ligand binding site; conditions: for Competition with Phage Clone SEQ ID NO: 5 (Family 1) for binding to the IL-7Rα subunit: phage clone 5, immobilized IL-7Rα ECD; for Competition with Phage Clone SEQ ID NO: 43 (Family 3A) for binding to the IL-7Rα subunit: phage clone 43, immobilized IL-7Rα ECD; for Competition with Phage Clone SEQ ID NO: 104 (Family 3B) for binding to the IL-7Rα subunit: phage clone 104, immobilized IL-7Rα ECD; for Competition with Phage Clone SEQ ID NO: 313 (Family 2) for binding to the IL-7Rα subunit: phage clone 313, immobilized IL-7Rα ECD
T2 sequence (P16871 21-236): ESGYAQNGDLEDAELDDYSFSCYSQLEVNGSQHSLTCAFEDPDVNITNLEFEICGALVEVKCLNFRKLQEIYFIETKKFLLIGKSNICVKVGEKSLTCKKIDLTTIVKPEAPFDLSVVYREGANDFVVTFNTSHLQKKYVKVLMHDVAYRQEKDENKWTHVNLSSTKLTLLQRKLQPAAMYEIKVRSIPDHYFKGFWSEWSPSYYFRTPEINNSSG

[3] = target: T2, IL-7Rα subunit; assay: Competition of IL-7Rα ligands with IL-7 for binding to IL-7Rα

T1 sequence (P31785 23-254): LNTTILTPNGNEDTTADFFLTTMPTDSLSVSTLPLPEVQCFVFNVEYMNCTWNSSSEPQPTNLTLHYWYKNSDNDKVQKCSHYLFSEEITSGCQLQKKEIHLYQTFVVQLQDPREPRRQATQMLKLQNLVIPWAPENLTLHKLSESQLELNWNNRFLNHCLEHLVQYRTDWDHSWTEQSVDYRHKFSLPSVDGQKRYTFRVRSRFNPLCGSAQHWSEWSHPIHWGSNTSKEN

Molecule	IC50 [1]	Competition with Phage Clone SEQ ID NO: 5 (Family 1) for binding to the IL-7Rα subunit [2]	Competition with Phage Clone SEQ ID NO: 43 (Family 3A) for binding to the IL-7Rα subunit [2]	Competition with Phage Clone SEQ ID NO: 104 (Family 3B) for binding to the IL-7Rα subunit [2]	Competition with Phage Clone SEQ ID NO: 313 (Family 2) for binding to the IL-7Rα subunit [2]	Competitive binding with IL-7 binding to IL-7Rα [3]	Competition with Phage Clone SEQ ID NO: 965 (N/A) for binding to the IL-7Rα subunit ([2]; phage clone 965, immobilized IL-7Rα ECD)
CC(C)C[C@@H]1NC(=O)[C@H](CCC(=O)O)NC(=O)[C@H](C)NC(=O)CNC(=O)[C@H](CCC(=O)O)NC(=O)[C@H](Cc2c[nH]c3ccccc23)NC(=O)[C@H](CC(=O)O)NC(=O)[C@H](CCC(N)=O)NC(=O)[C@@H](NC(=O)[C@@H](NC(=O)[C@@H](NC(=O)CNC(=O)CN)C(C)C)C(C)C)CSSC[C@@H](C(=O)N[C@@H](Cc2c[nH]c3ccccc23)C(=O)N[C@@H](CCC(N)=O)C(=O)NCC(=O)NCC(=O)O)NC1=O [SEQ ID NO: 1037, G G V V C Q D W E G A E L C W Q G G]	< 2000 nM						
CC(C)C[C@@H]1NC(=O)[C@H](C)NC(=O)[C@H](C(C)C)NC(=O)CNC(=O)[C@H](CCC(=O)O)NC(=O)[C@H](Cc2c[nH]c3ccccc23)NC(=O)[C@H](CC(=O)O)NC(=O)[C@H](CCC(N)=O)NC(=O)[C@@H](NC(=O)[C@@H](NC(=O)[C@@H](NC(=O)CNC(=O)CN)C(C)C)C(C)C)CSSC[C@@H](C(=O)N[C@@H](Cc2c[nH]c3ccccc23)C(=O)N[C@@H](CCC(N)=O)C(=O)NCC(=O)NCC(=O)O)NC1=O [SEQ ID NO: 1038, G G V V C Q D W E G V A L C W Q G G]	< 50 nM						
CC(C)[C@@H]1NC(=O)CNC(=O)[C@H](CCC(=O)O)NC(=O)[C@H](Cc2c[nH]c3ccccc23)NC(=O)[C@H](CC(=O)O)NC(=O)[C@H](CCC(N)=O)NC(=O)[C@@H](NC(=O)[C@@H](NC(=O)[C@@H](NC(=O)CNC(=O)CN)C(C)C)C(C)C)CSSC[C@@H](C(=O)N[C@@H](Cc2c[nH]c3ccccc23)C(=O)N[C@@H](CCC(N)=O)C(=O)NCC(=O)NCC(=O)O)NC(=O)[C@H](C)NC(=O)[C@H](CCC(=O)O)NC1=O [SEQ ID NO: 1039, G G V V C Q D W E G V E A C W Q G G]	< 5000 nM						
G G V P W C T L D P G S L Q C A W F [SEQ ID NO: 313]		+ (IL-7Rα ligand competes with phage binding.)	+ (IL-7Rα ligand competes with phage binding.)	+ (IL-7Rα ligand competes with phage binding.)	+ (IL-7Rα ligand competes with phage binding.)	do not bind competitively	
Q C I H W D I E T L L S C V [SEQ ID NO: 5]		+ (IL-7Rα ligand competes with phage binding.)	+ (IL-7Rα ligand competes with phage binding.)	+ (IL-7Rα ligand competes with phage binding.)	+ (IL-7Rα ligand competes with phage binding.)	do not bind competitively	
QCVHWDLDTLFGCIREQLEL [SEQ ID NO: 146]		+^1 (IL-7Rα ligand competes with phage binding.)	+ (IL-7Rα ligand competes with phage binding.)	+ (IL-7Rα ligand competes with phage binding.)	+ (IL-7Rα ligand competes with phage binding.)	do not bind competitively	0^2
V Y C A E I G E Y R V C R Q [SEQ ID NO: 43]		+ (IL-7Rα ligand competes with phage binding.)	+ (IL-7Rα ligand competes with phage binding.)	+ (IL-7Rα ligand competes with phage binding.)	+ (IL-7Rα ligand competes with phage binding.)	do not bind competitively	
Y M A C S S G L S L C R L S [SEQ ID NO: 104]		+ (IL-7Rα ligand competes with phage binding.)	+ (IL-7Rα ligand competes with phage binding.)	+ (IL-7Rα ligand competes with phage binding.)	+ (IL-7Rα ligand competes with phage binding.)	do not bind competitively	

Reference: patent publication US11746139B2, “IL-7Rαγc binding compounds” (MEDIKINE, INC., priority 2020, dated 2023)
